Reference: PMC7470827

Tests used:
[1] = target: MBP-tagged Tlg2 SNARE motif (residues 258-327) (Chaetomium thermophilum); experiment: AUC; sedimentation velocity, 42,000 rpm, 20°C, gel filtration buffer; MBP-Tlg2(258-327) 9 µM, Tlg2(79-200) 72 µM, Tlg2(258-327) 168 µM; c(S) by SEDFIT
[2] = target: Untagged Tlg2 SNARE motif (residues 258-327) (Chaetomium thermophilum); experiment: as above
[3] = target: Syntaxin-16 N-peptide (UniProt Q8BVI5); conditions: cited from earlier work
Sequence of UniProt Q8BVI5 (Q8BVI5 1-27): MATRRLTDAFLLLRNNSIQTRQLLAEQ

## MBP-tagged Tlg2 SNARE motif (residues 258-327) (domain or fragment)
[1]
  stoichiometry N: 4

## Untagged Tlg2 SNARE motif (residues 258-327) (domain or fragment)
[2]
  stoichiometry N: 4

## Vps45 (from UniProt P97390)
[3]
  Kd: 27 nM
